Tests used:
[1] = molecular target: the molecule itself; experiment: cryo-EM structure; conoid fibers (CF), native, from isolated T. gondii conoids after sonication and α-chymotrypsin; single-particle analysis, 2.9 Å (8-nm repeat) and 3.1 Å (24-nm repeat)
[2] = molecular target: the molecule itself; experiment: cryo-EM structure; intraconoidal microtubule ICMT-1, native, from isolated T. gondii conoids; single-particle analysis, 3.3 Å

Row | Protein | stoichiometry N [1] | stoichiometry N [2]
1 | SAS6L (natural protein, source: endogenous, isolated conoids of T. gondii tachyzoites (CHAPS lysis, sonication, α-chymotrypsin)) MATNFGFGGGASGCTDSVNFLAQVDTSAIDEMDPSLADGHTLVYSREVPFEIRLQETGSSLPGDVGRLEPIRVKILILGEETNPQHVRVELTSENDLFLNYTHALNEDLFRQMQERQKLMIEFGDYPSVLIKMLNSCIKEPHCFLAVLIMHTNGKARLDFIQSMEYKFIELLCLDCVQSTEEFTRRDMTFRYNALKSKLALLQARLHDIGCLLKLKSPSLLLHLQKAAQQQAHRRQQQVAAAAPIPGKLRAPGTTEGASTRFL | 2 | 
2 | ICMAP2 (natural protein, source: endogenous, isolated conoids of T. gondii tachyzoites (CHAPS lysis, sonication, α-chymotrypsin)) MVTFKSGEVDEHHESFLRREPRSPSRSPSAVQSSWKPVCYIEEIDSLTTFPSSASCDSSSKTKSSRSLISTSLDQPRDSASSSSEPRQSGLLHVNAQDLSPSRPPESLYQTGYVRSPSSFDGTLSCVGEKTGVVRGKSGHPPLSFRSPRMQSVAHSEDRDRKGLTYSFDAYPPEVFSRWKGRSRTGESCGLVTSSRGRSPCSRSPPGRSFPRCVDPQTDRIEEASQNCLPQSSELHASEVLGPADPAACPTQKPTVEPDSSVAASVFCPGTQAESQQVPSLPTDAFSGGDPVRSQVGSKRSHLLEDIQGKTRCSAARAVIDFDASGIRSVVVSDLGGTPLRLSPYLDTLPRSNHPLVLSKAATSVPPYCSSSSENFSEARQGGESRLTGGAAPEGGKLKASAVLGGNPQPRSCPSGGTQAMGGKYQAEESPTRSVFRGKVTVPAAEVHTTQAAGCPSERKVGEFRCQTDTDTLRHFRKSLRSYSDSPKRPETNSLNQGRSGSSRIIGQLSDATFGCRDSMASVRGAFAPPTSTVSKSLRHDEAVLREQGIKVRQKDAIFLKGVEKRHLGMQAGRQDSKPRYGLESAASCNATGAGEDPSPGFRIAGRASSSICAGGSSGESMNSAFMRGLPGSASNVRLPQWMRDYGVEDPSLQTDGCSRNVVSTRHPGTCQYSSADARRPRMRVSAGAPANLTPYLWDENSDRDGDNSLEDISCGPPYRGEMTYSITHSGNSGNQLSSQLPPAPLSVPGDVGSFGFPVAHFVCSNCGATAVPPQCPTCGAVIVQFDGTTQIPVAYRTNGTDALGLASRAVLRNGDSRSVQFSGEADPQSRSYAPYDASPSRSRGPSASRRSHVHSSRQERRELSRGEAETERCTAGTARRSGMVAVTAKKSGPPSRQRLVASSGPSLPSTKKLASQVWGSPRVCAILCSFLGLPQLLTIRRCSKNLLVAAQFEMRYVLYGTLQQLLREEETSKKATSSRPKSCEPPSARNREGRGRTLTPGVASTASARDRSLPACPFNAQTLTRLLELSPAELTALKNGQLPDRRVADAKTPRPEELRARASRLRRLHAERVEEQRRRVSARTSGKRVDREATEPVLVGLDEEMQLRREMQLQHEEELLMRERRLQQQECELFKKQQEIWLQETQQRLRQNITRNGRPHFAVPEPAALSGAGASFPCAHPGGWQKRHVGFDDDLVKGPEIDYESEPPSFRRLRHSFLKLWNYNEAQFKAALYRHAFSSFPAYNYDTTAILCRCIYQLCADATSALPLNSILMLLTDRQSYLWRRMARLSGYVICSFTLNGCRREIGPSMPTTIQRVVPIPLDDGCWDGGRSRGSHRATPSRGRGGASRVGREFGDDSSEDPIPPFCWKEGIRGAVLESIELKLAKLSEEFIDEFVLYGRQQGLLLQLQGADSTVNGRLLATTLRRFCKQPEDRYVLMDLYEWLAAAMTFSQKCIKAKIEAAKRASPSPQCRIARPCTGRLQAFPPYERSEGRYGGRSTTPAFGSSVRGRSGCPGRVETPGATSAMTRGRSIARVSMGARRGVVEDSVHSIAYENALSSRTKSRERHADTPTRSRLVLRGNRAADFQRPVRGRSPDSSANHTGVFGRRSDGKLSTQSGVRSSSASRSRLTNQVSSGLTAREAAALCRLLQNQGKILEEVKQILNNMSAPGRRHTRVP |  | 2
3 | CF1 (natural protein, source: endogenous, isolated conoids of T. gondii tachyzoites (CHAPS lysis, sonication, α-chymotrypsin)) MQPLAREVSRLPRSGPLGPVAAKKDDKTFIPTNVRVSPGEKNDRVVKTEKIDDSTDGSGSHDGPRNLETQLEALTREVRELTLRVQEEKEMKELLNSQLNDAYEELADARSEHRVRGFAGASGARLRGVRGLPAFEARWMEPEHPTAQTAIRSQQEFELLLQEERARRHTMFEQYERHMKVMRKNHHKEKLETKKKVLSQVEFLIKKYRRLASDAVAVAKRERERVAEERKRARELAERACKNFEADLKGRTKTALEQYRRLVQEAHTAAKQEREELHNKCKELQETVDNERREFDTLIVREAEAKMAKFRASYARMKQQTEEERRQYGVMMHEIAKRVEKECAEYEEFVIRTMRDLLQSKGVEMTESGLRDFFQKKREEMRPSGEGHSSTDGLVTVKYRFQAADPEDLQ | 2 | 
4 | ICMT-associated protein 1 (ICMAP1) (natural protein, source: endogenous, isolated conoids of T. gondii tachyzoites (CHAPS lysis, sonication, α-chymotrypsin)) MMADLTLEPRGAGASRYLMTDLEDLDSSEGNSLVPYSRLGKSGNTDANLYSTPDMTTRYPGSRGLLRDDSRGSGGLDDPMGLPMRSLSPKDLGGRGGPRLSPAELKAQVRLRNMCGKPLRPDDVLVTRILTGEKSYWEALDEMRNLCASLTVENEKLKTGNAKATTKALEVEQKSRAEIRRLQTLQRVTRDELEMKLQDLTAENVRLRQSRDVERALQEQKVHMQKQIERLKQDSEEKGRLAAQRAREIHHLKEETQRSTDEAEALKGRVESLQAKLAEAISQKNLLLIRVKKDIRDIQDSAQQAREAVLAEKARSEQQAAEVEKHAQMQLQLHERKIRDLQQTVASEESQGEYYRRKYEEASKQLAKLKTQFDSTQNKTETDIALRERKLQELSESLNAAQKARDRSAQELNAMRSKYNILRGELEKAEQRRNHAEQEAIRAGAQVETMDVGRSTLEAKVSELQLERSGLMEKLQLAEKEVSELREAKNKIKASLDLAYQKEQFRLLEENSRIGTDLKVAQQQLDTVTRQKEQLQTDAERLRGAEEELREMQVDFLKMKTTLQLVQGRPCDNAKVVADGVVNALRAYAELKKATETQEQSMASLSQQNQALSQKANEAATLTREMLTLESENRSLNEHIASLTAELRKIGDQQTALQLEKEAQDEAFRQQIERVQKEAEARRRELDHQLEQAKERHRQETTKLTAELDRVKKLHDAEKKRTSELQVQVEDVKAEATQHTEGLEKRYQEQLRERNAQIEALSSEREEFAAETRAEIQQLKKTHADALKAARADRDKVLAERESHYQQQLEEMRTRQEQHAASQHHQRQELQQRLQQLELSFQETEANLRREVDAKAADVRSLQGQKEKLERELGAVKERLEDEQRSADRNLERVKRERQQDVERLQKELDDATRLAAEAERTAAEKIQSLETDVKNTRDQLKKANAGSEEKESLLEASKTRYADLENKHNDVVQKFNDLSEENKKLKKDLSAAADDKEAKEKQIKKLTDAQARDQQEIAAIKQKEREAIAAGDRLNAEIEKLKAEHRSAELKLKNDIDAVTTDKEAVEAKLAQVQKMHKEEAEALNSRIAQLTKEKADLEKAQRNLEEEKAALEQEKRKAASEAKVKQDLLEQKIAELQKQNQNLENGLRAAKAAGAAAAARPAPGAPGQAPPAAQAPQAGAPPAEEGGLFSWWGGGAAEAPPEAPASSAGAPAEAAPAPAAEAESSSWGWW |  | 2
